# Measured values published in US20130266574A1 (Regeneron, published 2013).
# Changes are numbered by the printed parent chain. In names and notes the source's numbering stands.
# T1: amino acid residues 26-148 of human ANGPTL4 fused in-line to mouse IgG2a (hANGPTL4-mFc) (human)
# T1 construct: contains the N-terminal coiled-coil region
# T1 chain: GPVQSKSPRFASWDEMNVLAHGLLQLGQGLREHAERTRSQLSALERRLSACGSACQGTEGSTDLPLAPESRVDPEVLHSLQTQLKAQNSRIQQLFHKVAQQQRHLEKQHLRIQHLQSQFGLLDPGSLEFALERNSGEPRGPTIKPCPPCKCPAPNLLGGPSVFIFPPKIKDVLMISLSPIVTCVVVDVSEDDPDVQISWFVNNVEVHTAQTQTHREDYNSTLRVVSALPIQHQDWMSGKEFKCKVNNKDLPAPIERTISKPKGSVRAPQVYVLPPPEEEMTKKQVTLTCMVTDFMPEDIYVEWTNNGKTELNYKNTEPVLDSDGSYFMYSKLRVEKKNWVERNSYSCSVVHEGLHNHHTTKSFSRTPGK
# T2: full-length hANGPTL4 (amino acid residues 26-406 of SEQ ID NO:476) with a C-terminal hexa-histidine tag (human, UniProt Q9BY76 26-406)
# T2 sequence: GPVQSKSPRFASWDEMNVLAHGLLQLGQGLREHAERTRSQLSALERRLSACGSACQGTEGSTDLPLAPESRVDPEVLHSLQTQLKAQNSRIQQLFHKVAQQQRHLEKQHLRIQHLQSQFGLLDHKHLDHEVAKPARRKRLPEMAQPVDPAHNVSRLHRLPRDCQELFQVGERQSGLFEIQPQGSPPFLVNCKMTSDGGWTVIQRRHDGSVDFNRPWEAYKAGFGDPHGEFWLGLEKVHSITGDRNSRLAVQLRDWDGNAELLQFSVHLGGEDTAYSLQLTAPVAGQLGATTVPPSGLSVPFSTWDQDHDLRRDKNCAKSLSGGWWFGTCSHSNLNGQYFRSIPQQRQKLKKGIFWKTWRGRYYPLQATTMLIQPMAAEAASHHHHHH
# B1: H4H284P (antibody, human IgG4 S228P, V domains shown)
# VH: QVQLVESGGGVVQPGRSLRLSCAASGFTFSSYGMHWVRQAPGKGLEWMAVISFDGGNKNNADSVKGRFTISRDNSKNTLYLQMNSLRAEDTAVYYCAKEGDRSGHPYFYYYGLDVWGQGTTVTVSA
# VL: DIQLTQSPSFLSASVGDRVTITCWASQGISSYLAWYQQKPGKAPKLLIYAASTLQSGVPSRFSGSGSETEFTLTISSLQPEDFATYYCQQLHSYPLTFGGGTKVEIK
# notes: IgG4 version of H1H284P (constant region replaced)
# B2: H4H268P2 (antibody, human IgG4 S228P, V domains shown)
# VH: QVQLQQSGAGLLKPSETLSLTCTVYGGSFSIHHWTWIRHPPGKGLEWIGEINHRGSTNYNPSLKSRVTISIDTSKNQFSLKLSAVTAADTAVYYCARGLRFLDWLSSYFDYWGQGTLVTVSS
# VL: DIQMTQSPSSLSASVGDRVTITCRASQGISDYLAWYQQKPGKVPNLLIYAASALQSGVPSRFSGSGSGTDFTLTISSLQPEDVATYYCQNYNTAPLTFGGGTKVEIK
# notes: IgG4 version of H1H268P
# B3: H1H653P (antibody, V domains shown)
# VH: QVQLVESGGGVVQPGRSLRLSCVASGFTFSSYGMHWVRQAPGKGLEWMAVIWYDGSNKYFADSVKDRFTISRDNSKNTLYLQMNTLRPDDTAVYYCVKADAPLLIYGVDVWGQGTTVTVS
# VL: DIQMTQSPSSLSASVGDRVTITCRASQGIRNDLGWYQEKPGKAPKRLIYFASSLQSGVPSRFSGSGSGTEFTLTISSLQPEDFATYYCLQHNSYPYTFGQGTKLEIK
# notes: Fully human antibody, H1H prefix (human IgG1)
# B4: H1H624P (antibody, V domains shown)
# VH: EVQLVESGGGLVQPGGSLRLSCAASEFIFSSYAMNWVRQAPGKGLEWVSVISGSGDSKYYADSVKGRFTISRDNSKNTLYLQMNSLRVEDTAVYYCAKDGKDRYGFYYNFYGMDVWGQGTTVTVS
# VL: B1 VL with L4M, L46I, G64A, E68G, Y87H, H92N, L96F, G100P, E105D
# notes: as for B3
# B5: H1H292P (antibody, V domains shown)
# VH: EVQLVESGGGLVQPGGSLRLSCVASGFTFSSYDMHWVRQLPGKGLEWVSAIGVAGDTYYPASVKGRFTISRENAKNSLYLQMNSLRAGDTAVYYCARGDSGNYYDGDYFDFWGQGTLVTVSS
# VL: DIQMTQSPSTLSASVGDRVTITCRASQSINRWLAWYQQKPGKAPKVLIYKASNLESGVPSRFSGSGSGTEFTLTISSLQPDDFATYYCQQYDSYFRTFGQGTKVEIK
# notes: as for B3
# B6: H1H291P (antibody, V domains shown)
# VH: EVQLVESGGGLVQPGGSLRLSCAASGFTFSTYDMHWVRQGLGKGLEWVSAIGSAGDTYYPGSVKGRFTISRDNAKSSLFLHMNSLRAGDTALYYCARGDSRNYFVGDYFDYWGQGTLVTVSS
# VL: B5 VL with V15I, N30S, R31S, N53S, S56A, T85S, D92S, F95S
# notes: as for B3
# B7: H1H285P (antibody, V domains shown)
# VH: EVQLVESGGGLVQPGGSLRLSCAASGFTFSRYDMHWVRQVTGKGLEWVSGIGTAGDTYYPGSVKGRFTISRENDKNSLYLQMNSLRVGDTAVYYCARGDSKNYYVGDYFDYWGQGTLVTVSS
# VL: B5 VL with I21F, Q27H, N30G, R31N, K50E, N53S, S56D, S93T
# notes: as for B3
# B8: H1H283P (antibody, V domains shown)
# VH: B7 VH with R31S, T41A, G50A, G61V, D74A, Q81H, V87A, Y94F, K101R
# VL: B5 VL with N30S, D92N, F95S
# notes: as for B3
# B9: H1H257P (antibody, V domains shown)
# VH: B7 VH with R31S, T41A, G50A, G61V, D74A, Q81H, V87A, Y94F, K101R
# VL: B5 VL with N30S, K50Q, F95S, T97A, Q100R
# notes: Fully human antibody; the H1H prefix stands for human IgG1 (said outright only for H1H268P and H1H284P)
# B10: H1H638P (antibody, V domains shown)
# VH: B5 VH with L40V, P41A, S49A, V53T, A61V, Y79S, Q81H, G101R, D105V, F111Y
# VL: B5 VL with N30S, N53S, E55K, P80S, D92N, F95S
# notes: as for B3
# B11: H1H295P (antibody, V domains shown)
# VH: B6 VH with G40A, L41P, H81Q
# VL: B5 VL with N30G, R31T, V46I, N53S, S56G, T85N, D92N, Y94F, F95Y
# notes: as for B3
# B12: H1H644P (antibody, V domains shown)
# VH: B7 VH with R31S, T41A, G50A, G61V, D74A, Q81H, V87A, K101R
# VL: B5 VL with N30S, D92N, S93T, F95S
# notes: as for B3
# B13: H1H236N2 (antibody, V domains shown)
# VH: EVQLVESGGGLVQPGRSLRLSCAASGFTFDDYAMHWVRQAPGKGLEWVSGISWNSGSIVYADSVKGRFTISRDNAKNSLYLQMNSLISEDTALYYCAKDESSSSGNWFDPWGQGTLVTVSS
# VL: EVVMTQSPATLSVSPGERATLSCRASQSVSSNLAWYQQKPGQAPRLLIYGASTRATGIPARFSGSGSGTEFTLTISSLQSEDFAVYYCQEYNNWITFGQGTRLEIK
# Target: T1, amino acid residues 26-148 of human …
# Test: SPR (Biacore), pH 7.4, 25° C., protocol of Example 3
# Procedure: (§1) Antigen-antibody binding and dissociation were monitored in real time at 25° C. and 37° C. Kinetic analysis was performed to calculate KD and half-life of antigen/antibody complex dissociation.
# Furthermore, a single amino acid substitution was introduced in the framework region 1 of H1H268P (SEQ ID NO:42) to form H4H268P2 (SEQ ID NO:487) in the IgG4 version.
Binder,Kd [nM],t1/2 [h]
B1,0.143,3.42
B2,0.146,3.25

# Target: T1, amino acid residues 26-148 of human …
# Test: SPR (Biacore T100), hANGPTL4-mFc captured by anti-mouse IgG, antibody injected, 37° C.
# Procedure: as §1
Binder,Kd [nM],t1/2 [h]
B3,2.13,0.1
B4,3.71,0.05
B5,0.167,1.47
B6,0.178,2.03
B7,0.194,1.18
B8,1.36,0.2
B9,0.238,1.05
B10,0.299,0.8
B11,2.62,0.167
B12,3,0.1

# Target: T1, amino acid residues 26-148 of human …
# Test: SPR (Biacore T100), hANGPTL4-mFc captured by anti-mouse IgG, antibody injected, 25° C.
# Procedure: as §1
Binder,Kd [nM],t1/2 [h]
B3,0.411,0.717
B4,1.19,0.117
B5,0.136,1.87
B6,0.0876,5.05
B7,0.0925,2.6
B8,0.13,1.98
B9,0.201,1.52
B10,0.193,1.42
B11,0.0307,14.6
B12,0.111,2.4

# Target: T2, full-length hANGPTL4 (amino acid …)
# Test: cell-based or functional assay
row,Binder,"IC50 (nM) in the LPL inhibition assay, constant ANGPTL4 10 nM [nM]"
1,B1,1.19
2,B2,1.61

# Target: T1, amino acid residues 26-148 of human …
# Test: cell-based or functional assay
row,Binder,"IC50 (nM) in the LPL inhibition assay, constant ANGPTL4 2 nM [nM]"
1,B1,1.69
2,B2,1.85

# Target: T2, full-length hANGPTL4 (amino acid …)
# Test: cell-based or functional assay
# Remark: another data set of the same source
row,Binder,"% Inhibition of hANGPTL4 Activity (LPL lipase test), hANGPTL4-His (10 nM) [%]"
1,B3,48
2,B4,48
3,B13,19
4,B5,53
5,B7,47

# Target: T1, amino acid residues 26-148 of human …
# Test: cell-based or functional assay
# Remark: another data set of the same source
row,Binder,"% Inhibition of hANGPTL4 Activity (LPL lipase test), hANGPTL4-mFc (2 nM) [%]"
1,B3,55
2,B4,62
3,B13,13
4,B5,20
5,B7,28
6,B9,16
